Molecular target: Lymphocytic choriomeningitis virus RING finger Z matrix protein (Lymphocytic choriomeningitis virus (LCMV)) (UniProt P18541)
Experiment: cryo-EM structure

UniProt P18541, sequence (P18541 whole entry): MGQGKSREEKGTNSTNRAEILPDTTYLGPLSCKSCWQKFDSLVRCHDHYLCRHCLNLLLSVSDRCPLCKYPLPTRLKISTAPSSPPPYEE

With “Lymphocytic choriomeningitis virus large polymerase (L), P14240 1-2210” as the substance, how does the stoichiometry N read?
The stoichiometry N was 1.

Reference: publication PMC10501185
